Assay results: paper PMC2175255

Molecular target: erbB2 receptor tyrosine kinase (rat (endogenous in primary Schwann cells)) (UniProt P06494)
Assay: co-IP

Chain of UniProt P06494 (P06494 23-1257): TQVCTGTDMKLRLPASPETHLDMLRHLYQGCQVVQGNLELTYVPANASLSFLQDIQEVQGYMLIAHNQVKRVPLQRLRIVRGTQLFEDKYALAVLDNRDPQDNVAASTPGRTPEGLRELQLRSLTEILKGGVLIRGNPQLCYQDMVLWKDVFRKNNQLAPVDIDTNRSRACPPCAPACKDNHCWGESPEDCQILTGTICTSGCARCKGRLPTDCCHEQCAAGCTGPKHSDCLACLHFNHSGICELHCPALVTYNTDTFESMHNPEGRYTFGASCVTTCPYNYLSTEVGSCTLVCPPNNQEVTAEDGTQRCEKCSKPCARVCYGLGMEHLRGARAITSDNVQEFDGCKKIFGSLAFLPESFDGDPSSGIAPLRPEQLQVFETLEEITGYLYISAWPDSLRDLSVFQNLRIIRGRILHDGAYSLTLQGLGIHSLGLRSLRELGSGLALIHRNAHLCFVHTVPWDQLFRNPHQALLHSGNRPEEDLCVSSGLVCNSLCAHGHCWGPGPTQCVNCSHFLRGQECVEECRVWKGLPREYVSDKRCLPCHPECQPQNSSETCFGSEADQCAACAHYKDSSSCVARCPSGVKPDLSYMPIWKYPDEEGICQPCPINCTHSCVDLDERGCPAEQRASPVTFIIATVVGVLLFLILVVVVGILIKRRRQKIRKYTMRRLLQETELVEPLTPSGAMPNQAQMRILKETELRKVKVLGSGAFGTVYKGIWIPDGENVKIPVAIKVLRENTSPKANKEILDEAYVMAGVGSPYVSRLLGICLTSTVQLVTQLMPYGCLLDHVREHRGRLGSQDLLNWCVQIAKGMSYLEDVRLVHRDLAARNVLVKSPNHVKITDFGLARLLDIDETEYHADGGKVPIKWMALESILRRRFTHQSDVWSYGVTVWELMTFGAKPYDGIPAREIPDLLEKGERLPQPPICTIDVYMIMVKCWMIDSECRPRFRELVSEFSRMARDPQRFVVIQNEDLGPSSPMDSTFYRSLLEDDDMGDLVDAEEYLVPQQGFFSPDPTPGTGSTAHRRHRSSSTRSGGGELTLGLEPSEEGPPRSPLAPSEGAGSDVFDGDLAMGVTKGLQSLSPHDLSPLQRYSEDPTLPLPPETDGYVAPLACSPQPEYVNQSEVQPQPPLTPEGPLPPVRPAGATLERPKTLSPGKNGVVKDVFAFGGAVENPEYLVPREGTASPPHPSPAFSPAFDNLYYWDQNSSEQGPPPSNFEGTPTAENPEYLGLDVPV

“CD44 transmembrane glycoprotein (from UniProt P26051 22-503) (natural protein)” gave a fold CD44 co-immunoprecipitated with rh-GGF2 against untreated cells of 2 fold.
